In patent US20260250371A1 (ULTRAGENYX PHARMACEUTICAL, published 2026):
Positions count from the first letter of the chain named. In names and notes the source's numbering stands. Several values for one entry are separate records, joined by “and”; a condition that tells them apart may be missing. Equal entries are not always repeated. Where two headings read alike, the source gives them in different places.

B1: UGX206 (antibody, human IgG1, kappa, V domains shown)
VH: QVQLVQSGAEVKKPGASVKVSCKASGYTFTNHYMHWVRQAPGQGLEWMGIINPISGSTENAQKFQGRVTMTRDTSTSTVYMELSSLRSEDTAVYYCARDIVDAFDFWGQGTMVTVSS
VL: AIQLTQSPSSLSASVGDRVTITCRASQGISSALVWYQQKPGKAPKLLIYDASSLESGVPSRFSGSGSGTDFTLTISSLQPEDFATYYCQQFNDEFTFGPGTKVDIKR
notes: also called HC:S59E, LC:Y94E; S59E/Y94E
B2: UGX144 (antibody, human IgG1, kappa, V domains shown)
VH: B1 VH with E59S
VL: B1 VL with E94D
notes: also called LC:Y94D; Y94D
B3: human FGF23 (R179Q) (ligand, UniProt Q9GZV9 25-251, looked up)
chain: YPNASPLLGSSWGGLIHLYTATARNSYHLQIHKNGHVDGAPHQTIYSALMIRSEDAGFVVITGVMSRRYLCMDFRGNIFGSHYFDPENCRFQHQTLENGYDVYHSPQYHFLVSLGRAKRAFLPGMNPPPYSQFLSRRNEIPLIHFNTPIPRRHTQSAEDDSERDPLNVLKPRARMTPAPASCSQELPSAEDNSPMASDPLGVVRGGRVNTHAGGTGPEGCRPFAKFI
modifications: fully glycosylated (from HEK293S cells)
notes: also called hFGF23(R179Q); rhFGF23(R179Q)

Experiments:
[1] = target: T1, recombinant human FGF23 (R179Q) (human, UniProt Q9GZV9 25-251); assay: SPR, antibody captured on hIgG chip, rhFGF23(R179Q) analyte
T1 construct: also called rhFGF23(R179Q); hFGF23(R179Q)
T1 sequence (looked up): B3 chain

[2] = target: T2, cynomolgus monkey (Macaca fascicularis) FGF23 (R179Q) (cynomolgus monkey (Macaca fascicularis), UniProt Q9GZV9 25-251 (human entry), limits assumed); assay: SPR, antibody captured on hIgG chip, cynoFGF23(R179Q) analyte, single cycle kinetics
T2 construct: also called cynoFGF23; cynoFGF23(R179Q)
T2 chain: B3 chain with D85N, Q92R, Q94W, Y108H, I149R, M195V, G219A, A224P
Description: Binding kinetics of 13 antibody variants shown in Table 19 were characterized against cynomolgus monkey (Macaca fascicularis) FGF23 (R179Q) (i.e., “cynoFGF23”) (SEQ ID NO: 372). Antibody variants were expressed at small scale (3 ml) and screened by SPR analysis at a single concentration (100 nM). Experimental setup of SPR analysis for CRC: SPR device—8K+; chip preparation—CM5 hIgG chip: channels—1-8; immobilization concentration—1.5 ug/ml; immobilization method—capture; flow rate—5 μl/min; contact time—60 s; running buffer—1×HBS-EP+pH 7.4; temperature—20° C.: flow rate—50 μl/min; association time—120 s; dissociation time—1800 s; antigen—cynoFGF23(R179Q): top concentration—0.1 μM, 9-pt 3-fold Single Cycle Kinetics.

[3] = target: T1, recombinant human FGF23 (R179Q); assay: SPR, antibody captured on hIgG chip, human FGF23 analyte
[4] = target: T1, recombinant human FGF23 (R179Q); assay: SPR, antibody captured on hIgG chip, rhFGF23(R179Q) analyte; remark: listed apart in the source
[5] = target: the molecule itself; assay: X-ray crystal structure of the hFGF23(R179Q):burosumab Fab complex
Description: To further characterize the human FGF23-burosumab interaction, x-ray crystallographic study was carried out using fully glycosylated human FGF23 (R179Q) from HEK293S cell supernatant in complex with burosumab Fab fragments also expressed in HEK293S cells. Burosumab IgG heavy and light chains were subjected to papain digestion to separate Fc and Fab fragments, then Protein A to isolate Fab fragments of approximately 50 kDa, according to routine methods (Pierce™ Fab Preparation Kit, Thermo Scientific™, cat #!44985). Fully glycosylated human FGF23 (R179Q) and burosumab Fab fragments were incubated on ice for more than one hour (1:0.8 molar ratio) and the stable complex was isolated by size exclusion chromatography (SEC) followed by evaluation by SDS-PAGE. SEC fractions containing the complex were pooled, concentrated, and stored at −80° C.
Diffraction data was collected from a single crystal at the Advanced Photon Source (APS) synchrotron and processed using autoPROC (autoProc, XDS, POINTLESS, AIMLESS, CCP4, and STARANISO) (see Vonrhein C, Flensburg C, Keller P, Sharff A, Smart O, Paciorek W, Womack T, Bricogne G. Data processing and analysis with the autoPROC toolbox. Acta Crystallogr D Biol Crystallogr. 2011 April; 67(Pt 4):293-302. [doi:10.1107/S0907444911007773]). […]

| Binder | Kd [1] | koff [1] | kon [1] | KD ratio (variant antibody KD/burosumab KD) [2] | Kd [2] | KD ratio (variant antibody KD/burosumab KD) [3] | Kd [3] | Kd [4] | Ratio (variant antibody KD/burosumab KD) [4] | SA (surface activity) [4] | koff [4] | kon [4] | binding result [5] |
| --- | --- | --- | --- | --- | --- | --- | --- | --- | --- | --- | --- | --- | --- |
| B1 | 6.62 pM and 7.87 pM and 10.9 pM | 5.72e-05 s⁻¹ and 4.92e-05 s⁻¹ and 8.37e-05 s⁻¹ | 8.64e+06 M⁻¹ s⁻¹ and 6.25e+06 M⁻¹ s⁻¹ and 7.69e+06 M⁻¹ s⁻¹ | 3 | 7.16 pM | 3 | 7.87 pM | 7.87 pM | 3 | 108% | 4.92e-05 s⁻¹ | 6.25e+06 M⁻¹ s⁻¹ | – |
| B2 | 6.58 pM and 5.77 pM | 7.03e-05 s⁻¹ and 6.31e-05 s⁻¹ | 1.07e+07 M⁻¹ s⁻¹ and 1.09e+07 M⁻¹ s⁻¹ | 3 | 6.86 pM | 4 | 5.77 pM | 5.77 pM | 4 | 89.5% | 6.31e-05 s⁻¹ | 1.09e+07 M⁻¹ s⁻¹ | – |
| B3 | – | – | – | – | – | – | – | – | – | – | – | – | binds |
